Laboratory results: paper PMC6909241

Target: NCp7 (nucleocapsid protein) (HIV-1, UniProt P12493 378-432)
Assay: EMSA; 7.5-300 nM NCp7, 15 nM RNA folded in 50 mM KCl; free G4 decreases from 75 nM, near complete disappearance and faint complex at 300 nM; EMSA: RNA annealed in 10 mM Li cacodylate pH 7.4, 50 mM KCl; 15 nM RNA in 8% glycerol, 30 mM Tris-HCl, 15 mM MgCl2, 50 uM ZnCl2, 37 C; 12% native gel at 4 C

GGGAGGCGUGGCCUGGGCGGGACUGGGGAGUGG (structured_RNA) [RNA U3-III+IV G4]
binding result: binds
